Reference: the RNAGym collection of RNA variant scans (doi:10.1073/pnas.2313332121)
Fewer inactive variants are shown than the library holds.

B1: TPR 5TU (parent)
chain: GGAUCUUCUCGAUCUAACAAAAAAGACAAAUCUGCCACAAAGCUUGAGAGCAUCUUCGGAUGCAGAGGCGGCAGCCUUCGGUGGCGCGAUAGCGCCAACGUUCUCAACUAUGACACGCAAAACGCGUGCUCCGUUGAAUGGAGUUUAUCAUG

Variants of: B1
Experiment: polymerase ribozyme fitness, log enrichment relative to wild type (log ratio); higher = more active; in vitro selection for triplet polymerase activity
In short: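 Mutant libraries of each subunit of a heterodimeric triplet polymerase ribozyme were built by PCR and transcribed. Each library went through one round of in vitro selection in triplicate: annealing with biotinylated primer, partner subunit and triplets, frozen incubation at −7 °C, gel excision of extended constructs, streptavidin-bead capture and RT-PCR. Input and output libraries were Illumina-sequenced; only genotypes with ≥10 input reads and ≥1 read per output were kept. Fitness is log2(genotype enrichment/wild-type enrichment), using inverse-variance-weighted replicate averages.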

First: GGAUCUUCUCGAUCUAACAAAAAAGACAAAUCUGCCACAAAGCUUGAGAGCAUCUUCGGAUGCAGAGGCGGCAGCCUUCGGUGGCGCGAUAGCGCGAACGUUCUCAACUAUGACACGCAAAACGCGUGCUCCGUUGAAUGGAGUUUAACAUG [C96G U148A]
Second: GGAUCUUCUCGAUCUAACAAAAAAGACAAAUCUGCCACAAAGCUUGAGAGCAUCUUCGGAUGCAGAGGCGGCAGCCUUCGGUGGCGCGAUAGCGCGUACGUUCUCAACUAUGACACGAAAAACGCGUGCUCCGUUGAAUGGAGUUUAUCAUG [C96G A97U C118A]
The “polymerase ribozyme fitness (log ratio)” value of the first is lower: -3.53 for the first, -3.08 for the second.

Compared with GGAUCUUCUCGAUCUAACAAAAAAGACAAAUCUGCCACAAAGCUUGAGAGCAUCUUCGGAUGCAGAGGCGGCAGCCUUCGGUGGCGCGAUAGCGCAAACGUUCUCAACUAUGACACGCAAAACGCGUGCUCCGUUGAAUGGAGUUAAACAUG [C96A U146A U148A], GGAUCUUCUCGAUCUAACAAAAAAGACAAAUCUGCCACAAAGCUUGAGAGCAUCUUCGGAUGCAGAGGCGGCAGCCUUCGGUGGCGCGAUAGCGCGAACGUUCUCAACUAUGACAAGCAAAACGCGUGCUCCGUUGACUGGAGUUUCUCAUG [C96G C116A A138C A147C] is higher in “polymerase ribozyme fitness (log ratio)” value: -4.17 for the first, -3.36 for the second.

Going from GGAUCUUCUCGAUCUAACAAAAAAGACAAAUCUGCCACAAAGCUUGAGAGCAUCUUCGGAUGCAGAGGCGGCAGCCUUCGGUGGCGCGAUAGCGCUUACGUUCUCAACUAUGACACGCAAAACGCGUGCUCCGUUGAAUGGAGUUUAUCAUG [C96U A97U] to GGAUCUUCUCGAUCUAACAAAAAAGACAAAUCUGCCACAAAGCUUGAGAGCAUCUUCGGAUGCAGAGGCGGCAGCCUUCGGUGGCGCGAUAGCGCUGACGUUCUCAACUAUGACACGCAAAACGCGUGCUCCGUUGAAUGGAGUUUAUCAUG [C96U A97G], the “polymerase ribozyme fitness (log ratio)” value rises from -0.832 to -0.535.

Going from GGAUCUUCUCGAUCUAACAAAAAAGACAAAUCUGCCACAAAGCUUGAGAGCAUCUUCGGAUGCAGAGGCGGCAGCCUUCGGUGGCGCGAUAGCGCGAACGUUCUCAACUAUGACACGCAAAUCGCGUGCUCCGUUGAAUGGAGUUUAUCAUG [C96G A122U] to GGAUCUUCUCGAUCUAACAAAAAAGACAAAUCUGCCACAAAGCUUGAGAGCAUCUUCGGAUGCAGAGGCGGCAGCCUUCGGUGGCGCGAUAGCGCAAACGUUCUCAACUAUGACACGUAAAACGCGUGCUCCGUUGAAUGGAGUUUAUCAUG [C96A C118U], the “polymerase ribozyme fitness (log ratio)” value falls from -1.49 to -1.8.

Compared with GGAUCUUCUCGAUCUAACAAAAAAGACAAAUCUGCCACAAAGCUUGAGAGCAUCUUCGGAUGCAGAGGCGGCAGCCUUCGGUGGCGCGAUAGCGCGAACGUUCUCAACUAUGACACGCAAAACGCGUGCUCCGUUGUAUGGAGUUUAUCAUG [C96G A137U], GGAUCUUCUCGAUCUAACAAAAAAGACAAAUCUGCCACAAAGCUUGAGAGCAUCUUCGGAUGCAGAGGCGGCAGCCUUCGGUGGCGCGAUAGCGCAAACGUUCUCAACUAUGACACGCAAAACGGGUGCUCCGUUGAAUGGAGUUUAUCAUG [C96A C125G] is higher in “polymerase ribozyme fitness (log ratio)” value: -4 for the first, -0.535 for the second.

First: GGAUCUUCUCGAUCUAACAAAAAAGACAAAUCUGCCACAAAGCUUGAGAGCAUCUUCGGAUGCAGAGGCGGCAGCCUUCGGUGGCGCGAUAGCGCUAACGUUCUCAACUAUGACACGCUAAACGCGUGCUCCGUUGAAUGGAGUUUAUCAUG [C96U A119U]
Second: GGAUCUUCUCGAUCUAACAAAAAAGACAAAUCUGCCACAAAGCUUGAGAGCAUCUUCGGAUGCAGAGGCGGCAGCCUUCGGUGGCGCGAUAGCGCAAACGUUCUCAACUAUGACACGCAAAACGCGUGCUCCGUUGAAUGGAGUUUAUCAGG [C96A U151G]
The “polymerase ribozyme fitness (log ratio)” value of the first is higher: -0.778 for the first, no more than -4.2 for the second.

First: GGAUCUUCUCGAUCUAACAAAAAAGACAAAUCUGCCACAAAGCUUGAGAGCAUCUUCGGAUGCAGAGGCGGCAGCCUUCGGUGGCGCGAUAGCGCAAACGUUCUCAACUAUGACACGCAAAACGCGUGCUCCGCUGAGUGCAGUUUAUCAUG [C96A U134C A138G G141C]
Second: GGAUCUUCUCGAUCUAACAAAAAAGACAAAUCUGCCACAAAGCUUGAGAGCAUCUUCGGAUGCAGAGGCGGCAGCCUUCGGUGGCGCGAUAGCGCAAACGUUCUCAACUAUGACAUGCAAAACGCGUGCUCCGUUGAAUGGAGUUUAUCAUG [C96A C116U]
The “polymerase ribozyme fitness (log ratio)” value of the first is lower: -4.07 for the first, -0.662 for the second.

GGAUCUUCUCGAUCUAACAAAAAAGACAAAUCUGCCACAAAGCUUGAGAGCAUCUUCGGAUGCAGAGGCGGCAGCCUUCGGUGGCGCGAUAGCGCAAACGUUCUCAACUAUGACACGUAAAACGCGUGCUCCGUUGAAUGGAGUUUACCAUG [C96A C118U U148C] and GGAUCUUCUCGAUCUAACAAAAAAGACAAAUCUGCCACAAAGCUUGAGAGCAUCUUCGGAUGCAGAGGCGGCAGCCUUCGGUGGCGCGAUAGCGCAAACGUUCUCAACUAUGACACGCAAAACGCGUGCUCCGAUGAAUGGAGUUUAUCAUG [C96A U134A] are within 0.2 log units of each other in “polymerase ribozyme fitness (log ratio)” value: -2.57 for the first, -2.73 for the second.

Compared with GGAUCUUCUCGAUCUAACAAAAAAGACAAAUCUGCCACAAAGCUUGAGAGCAUCUUCGGAUGCAGAGGCGGCAGCCUUCGGUGGCGCGAUAGCGCAAACGUUCUCAACUAUGACACGCAAAACGCGUGCUCCGUUGAAUGGAGUAUAUCAUG [C96A U145A], GGAUCUUCUCGAUCUAACAAAAAAGACAAAUCUGCCACAAAGCUUGAGAGCAUCUUCGGAUGCAGAGGCGGCAGCCUUCGGUGGCGCGAUAGCGCAAACGUUCUCAACUAUGACAUGCAAAACGCGUGCUCCGUUUAAUGGAGUUUAUCGUG [C96A C116U G136U A150G] is lower in “polymerase ribozyme fitness (log ratio)” value: 0.431 for the first, -4.06 for the second.

With GGAUCUUCUCGAUCUAACAAAAAAGACAAAUCUGCCACAAAGCUUGAGAGCAUCUUCGGAUGCAGAGGCGGCAGCCUUCGGUGGCGCGAUAGCGCAAACGUUCUCAACUAUGACACGCAAAACGCGUGCUCCUUUGAAUGGAGUUUAUCAUG [C96A G133U] the “polymerase ribozyme fitness (log ratio)” value was -3.9.
